Experimental data taken from patent US20090208522A1.
“And” between values parts separate entries of the source, which are not always exact repeats. Identical values can stand only once.

Tests used:
[1] = target: TMV-FV7 (DJ5(12)-U1-GPAT coat protein fusion, from pLSB-FV7); experiment: indirect ELISA, endpoint dilution
[2] = target: DJ1 peptide (GDF8 active region peptide 267-286) (human); experiment: ELISA, peptide coated 500 ng/well, antibody diluted 1:40
[3] = target: DJ5 peptide (GDF8 active region peptide 327-346) (human); experiment: as above
[4] = target: DJ3 peptide (GDF8 active region peptide 297-316) (human); experiment: as above
[5] = target: DJ2 peptide (GDF8 active region peptide 282-301) (human); experiment: as above
[6] = target: DJ4 peptide (GDF8 active region peptide 312-331) (human); experiment: as above
[7] = target: DJ7 peptide (GDF8 active region peptide 357-375) (human); experiment: as above
[8] = target: DJ6 peptide (GDF8 active region peptide 342-361) (human); experiment: as above
[9] = target: Purified CHO-derived FLAG-tagged human GDF8 prohormone (precursor GDF8) (human) (UniProt O14793); experiment: indirect ELISA
[10] = target: DJ1 peptide (GDF8 active region peptide 267-286) (human); experiment: ELISA, peptide coated 500 ng/well, antibody diluted 1:80
[11] = target: DJ5 peptide (GDF8 active region peptide 327-346) (human); experiment: as above
[12] = target: DJ3 peptide (GDF8 active region peptide 297-316) (human); experiment: as above
[13] = target: DJ2 peptide (GDF8 active region peptide 282-301) (human); experiment: as above
[14] = target: DJ4 peptide (GDF8 active region peptide 312-331) (human); experiment: as above
[15] = target: DJ7 peptide (GDF8 active region peptide 357-375) (human); experiment: as above
[16] = target: DJ6 peptide (GDF8 active region peptide 342-361) (human); experiment: as above
[17] = target: DJ5 (20) peptide conjugated to BSA (human); experiment: indirect ELISA, conjugate coated at 5 ug/mL
[18] = target: TMV U1 coat protein / wild-type TMV U1 virus (tobacco mosaic virus, strain U1) (UniProt P69687); experiment: DAS ELISA, virion captured by PVAS-135D
[19] = target: TMV-FV7 (DJ5(12)-U1-GPAT coat protein fusion, from pLSB-FV7); experiment: DAS ELISA, virion captured by PVAS-135D
[20] = target: Purified CHO-derived FLAG-tagged human GDF8 prohormone (precursor GDF8) (human) (UniProt O14793); experiment: direct ELISA, response per pmole
[21] = target: TMV-FV7 (DJ5(12)-U1-GPAT coat protein fusion, from pLSB-FV7); experiment: DAS ELISA, virion captured by PVAS 135D
[22] = target: GDF8 protein (R&D Systems Inc.) (UniProt O14793); experiment: cell-based or functional assay
[23] = target: TMV U5 coat protein / TMV U5 virus (tobacco mild green mosaic virus (TMV U5)); experiment: indirect ELISA, antigen coated at 5 ug/mL
[24] = target: TMV U1 coat protein / wild-type TMV U1 virus (tobacco mosaic virus, strain U1) (UniProt P69687); experiment: indirect ELISA, antigen coated at 5 ug/mL
[25] = target: TMV-FV7 (DJ5(12)-U1-GPAT coat protein fusion, from pLSB-FV7); experiment: indirect ELISA, antigen coated at 5 ug/mL
[26] = target: TMV-FV7 (DJ5(12)-U1-GPAT coat protein fusion, from pLSB-FV7); experiment: DAS ELISA, PVAS 135D capture
[27] = target: Purified CHO-derived FLAG-tagged human GDF8 prohormone (precursor GDF8) (human) (UniProt O14793); experiment: ELISA, prohormone coated 250 ng/well, antibody diluted 1:40
[28] = target: Purified CHO-derived FLAG-tagged human GDF8 prohormone (precursor GDF8) (human) (UniProt O14793); experiment: ELISA, prohormone coated 250 ng/well, antibody diluted 1:80
[29] = target: Purified CHO-derived FLAG-tagged human GDF8 prohormone (precursor GDF8) (human) (UniProt O14793); experiment: ELISA, prohormone coated 250 ng/well, antibody diluted 1:20
[30] = target: DJ1 peptide (GDF8 active region peptide 267-286) (human); experiment: ELISA, peptide coated 500 ng/well, antibody diluted 1:20
[31] = target: DJ5 peptide (GDF8 active region peptide 327-346) (human); experiment: as above
[32] = target: DJ3 peptide (GDF8 active region peptide 297-316) (human); experiment: as above
[33] = target: DJ2 peptide (GDF8 active region peptide 282-301) (human); experiment: as above
[34] = target: DJ4 peptide (GDF8 active region peptide 312-331) (human); experiment: as above
[35] = target: DJ7 peptide (GDF8 active region peptide 357-375) (human); experiment: as above
[36] = target: DJ6 peptide (GDF8 active region peptide 342-361) (human); experiment: as above
[37] = target: Purified CHO-derived FLAG-tagged human GDF8 prohormone (precursor GDF8) (human) (UniProt O14793); experiment: indirect ELISA, proGDF8FLAG coated at 5 ug/mL

## Rat monoclonal antibody MAB788 (R&D Systems, anti-mouse GDF8)
[1]
  fold higher response than against the U1 coat protein: 3 fold
[2]
  ELISA reactivity (OD 405/minute x 1000) (OD405/min x 1000): 0
[3]
  ELISA reactivity (OD 405/minute x 1000) (OD405/min x 1000): 118
[4]
  ELISA reactivity (OD 405/minute x 1000) (OD405/min x 1000): 0
[5]
  ELISA reactivity (OD 405/minute x 1000) (OD405/min x 1000): 0
[6]
  ELISA reactivity (OD 405/minute x 1000) (OD405/min x 1000): 0
[7]
  ELISA reactivity (OD 405/minute x 1000) (OD405/min x 1000): 0
[8]
  ELISA reactivity (OD 405/minute x 1000) (OD405/min x 1000): 0
[9]
  endpoint dilution higher than for DJ5(20) BSA (log10): 2
[10]
  ELISA reactivity (OD 405/minute x 1000) (OD405/min x 1000): 0
[11]
  ELISA reactivity (OD 405/minute x 1000) (OD405/min x 1000): 102
[12]
  ELISA reactivity (OD 405/minute x 1000) (OD405/min x 1000): 0
[13]
  ELISA reactivity (OD 405/minute x 1000) (OD405/min x 1000): 0
[14]
  ELISA reactivity (OD 405/minute x 1000) (OD405/min x 1000): 0
[15]
  ELISA reactivity (OD 405/minute x 1000) (OD405/min x 1000): 0
[16]
  ELISA reactivity (OD 405/minute x 1000) (OD405/min x 1000): 0
[17]
  endpoint dilution (reciprocal dilution): 270
[18]
  endpoint dilution (reciprocal dilution): 180
[19]
  endpoint dilution (reciprocal dilution): 14600
[20]
  fold higher response than to TMV-FV6 and TMV-FV7: 2 fold and 3 fold
[21]
  endpoint dilution (reciprocal dilution): 7290
[22]
  % Inhibition of GDF8 Activity (in vitro transcriptional activation assay), 0.1 ug IgG: 0%
  % Inhibition of GDF8 Activity (in vitro transcriptional activation assay), 1.8 ug IgG: 0%
  % Inhibition of GDF8 Activity (in vitro transcriptional activation assay), 3.1 ug IgG: 7%
  % Inhibition of GDF8 Activity (in vitro transcriptional activation assay), 6.3 ug IgG: 17%
  % Inhibition of GDF8 Activity (in vitro transcriptional activation assay), 12.5 ug IgG: 47%
[23]
  endpoint dilution (reciprocal dilution): < 20
[24]
  endpoint dilution (reciprocal dilution): 1620
[25]
  endpoint dilution (reciprocal dilution): 4860
[26]
  fold lower endpoint dilution than for the GDF8 prohormone: 3 fold
[27]
  ELISA reactivity (OD 405/minute x 1000) (OD405/min x 1000): 127
[28]
  ELISA reactivity (OD 405/minute x 1000) (OD405/min x 1000): 132
[29]
  ELISA reactivity (OD 405/minute x 1000) (OD405/min x 1000): 132
[30]
  ELISA reactivity (OD 405/minute x 1000) (OD405/min x 1000): 4
[31]
  ELISA reactivity (OD 405/minute x 1000) (OD405/min x 1000): 133
[32]
  ELISA reactivity (OD 405/minute x 1000) (OD405/min x 1000): 0
[33]
  ELISA reactivity (OD 405/minute x 1000) (OD405/min x 1000): 0
[34]
  ELISA reactivity (OD 405/minute x 1000) (OD405/min x 1000): 0
[35]
  ELISA reactivity (OD 405/minute x 1000) (OD405/min x 1000): 0
[36]
  ELISA reactivity (OD 405/minute x 1000) (OD405/min x 1000): 0
[37]
  endpoint dilution (reciprocal dilution): 21900

## Normal goat IgG (purified from non-immunized goat sera, commercially purchased) (antibody)
[22]
  % Inhibition of GDF8 Activity (in vitro transcriptional activation assay), 250 ug IgG: 7%
  % Inhibition of GDF8 Activity (in vitro transcriptional activation assay, A204 cells, luciferase reporter), 250 ug IgG: 0%
